From article PMC10653379

Target: eIF3a-HA (Trypanosoma brucei (endogenous in procyclic form strain 29-13))
Experiment: proximity ligation

DRBD18 (natural protein)
PLA dots per cell (dots per cell): 8
